For this assay, the target named is T1, PUB domain of peptide:N-glycanase (UniProt Q9JI78 1-119).
T1 construct: PUB domain of peptide:N-glycanase (PNGase); molecular weight 12.5 kDa as printed in the methods; PDB 2D5U is, as I recall, the mouse protein; The supplement's 1.34 mg/mL for 100 µM implies 13.4 kDa, not the 12.5 kDa of the methods; also called PNGase-PUB; component B; source: purified, dialyzed in 10 mM sodium phosphate buffer (pH 7.0) or PBS
T1 sequence: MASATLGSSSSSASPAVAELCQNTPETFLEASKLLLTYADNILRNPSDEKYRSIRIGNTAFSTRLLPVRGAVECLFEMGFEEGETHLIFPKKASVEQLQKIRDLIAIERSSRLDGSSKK
Nature of the assay: AUC; sedimentation equilibrium (SE-AUC) of the mixture in 10 mM sodium phosphate buffer (pH 7.0), 25 °C; [hHR23b-UBL] = [PNGase-PUB] = 100, 75 and 50 µM; 20000, 30000 and 35000 rpm; absorbance optics; global fit with the association-dissociation equilibrium model A + B = AB (eq. 7, SEDPHAT). The settings on record: both partners purified.

In article PMC7280208, “Integral approach to biomacromolecular structure by analytical-ultracentrifugation and small-angle scattering” (Communications Biology, 2020) one finds Kd data, which are given here for one molecule.

B1: ubiquitin-like domain of the proteasome shuttle factor hHR23b (domain or fragment)
chain: not shown
notes: ubiquitin-like (UBL) domain of hHR23b; molecular weight 9.5 kDa as printed; also called hHR23b-UBL; component A; source: purified, dialyzed in 10 mM sodium phosphate buffer (pH 7.0) or PBS
The term Kd denotes the concentration at which binding is half-saturated. For B1, the Kd is 227 ± 28 µM.
